Assay results reported in US20180371086A1.

Tests used:
Assay in all cases: cell-based or functional assay
[1] = molecular target: HIV-1 Env gp120 of virus 92US727, on infected cells (HIV-1)
[2] = molecular target: HIV-1 Env of clone CH077 (HIV-1)
[3] = molecular target: HIV-1 Env of clone REJO (HIV-1)
[4] = molecular target: HIV-1 Env of clone RHPA (HIV-1)
[5] = molecular target: HIV-1 Env of clone THRO (HIV-1)
[6] = molecular target: HIV-1 Env of isolate 8110 (HIV-1)
[7] = molecular target: HIV-1 Env of isolate 8117 (HIV-1)
[8] = molecular target: HIV-1 Env of isolate 8134 (HIV-1)
[9] = molecular target: HIV-1 Env of isolate 8176 (HIV-1)
[10] = molecular target: HIV-1 Env of isolate 8320 (HIV-1)
[11] = molecular target: HIV-1 Env of isolate 8359 (HIV-1)
[12] = molecular target: HIV-1 Env of isolate 8398 (HIV-1)
[13] = molecular target: HIV-1 Env of isolate 92US712 (HIV-1)

PGT-121.60 (antibody)
Maximum percent of HIV-infected cells killed; PBMC-derived effector cells; donor 1004344; virus 92US727 [1]: 63.7% | Maximum percent of HIV-infected cells killed; tonsil-derived effector cells; donor 1004344; virus 92US727 [1]: 0% | Potency (IC50) of killing HIV-infected cells; PBMC-derived effector cells; donor 1004344; virus 92US727 [1]: 0.014 µg/mL | Potency (IC50) of killing HIV-infected cells; tonsil-derived effector cells; donor 1004344; virus 92US727 [1]: > 10 µg/mL | IC50 (neutralization, CEM.NKr.CCR5.LucR based assay) [2]: > 100 µg/mL | IC50 (neutralization, CEM.NKr.CCR5.LucR based assay) [3]: > 100 µg/mL | IC50 (neutralization, CEM.NKr.CCR5.LucR based assay) [4]: 0.534 µg/mL | IC50 (neutralization, CEM.NKr.CCR5.LucR based assay) [5]: > 100 µg/mL | IC50 (neutralization, CEM.NKr.CCR5.LucR based assay) [6]: 0.514 µg/mL | IC50 (neutralization, CEM.NKr.CCR5.LucR based assay) [7]: > 100 µg/mL | IC50 (neutralization, CEM.NKr.CCR5.LucR based assay) [8]: 0.062 µg/mL | IC50 (neutralization, CEM.NKr.CCR5.LucR based assay) [9]: 0.028 µg/mL | IC50 (neutralization, CEM.NKr.CCR5.LucR based assay) [10]: > 100 µg/mL | IC50 (neutralization, CEM.NKr.CCR5.LucR based assay) [11]: 0.337 µg/mL | IC50 (neutralization, CEM.NKr.CCR5.LucR based assay) [12]: 0.028 µg/mL | IC50 (neutralization, CEM.NKr.CCR5.LucR based assay) [13]: 0.019 µg/mL
